# The DeepSol protein solubility set
# Experiment: soluble on expression in E. coli; label from the status in PepcDB or PDB records
row,Sequence,soluble on expression in E. coli
1,MSLTILELTFATNQLTTTFFNHKLEPLHQKTFPFEALTIEETVPELCQLILAEAAPILGGIVADFPADFFSPEETLALVPQAVIQAFAEQLNTPLLTAAEQAAAPNLLEAFEEKRQYLAWHLDYYGYVPGKNEYAVESLLTVGNGFLGLRGTTPEMTISDDHYPATYIAGLYNTAASEVAGQVVENEDFVNAPDNQHIALKIGDATDWLTISPDTLQQLHRQLNLKTGLFVAEMILKDADNQQIKLTTKKIANMAQPNDYHLQYTFEPLNFSAPITLKTVTDGSVYNYNVARYRNLTAKHFQVTALSAQENKTVIEVCTNQSNLSVRETSLITGDFFEKEAITIQEEAEKIAQVVTVMAHQGTRYTLEKQVFVQASHAEQSWQVPFTPKDSFAAAAQESARAWQTLWQQANITVTGDLMSQKLLRIHSYHLLASASPFSNQAQALDVSITARGLHGEAYRGHIFWDEIFILPFYIQHYPDTAKQLLLYRYHRLEKAKENAAASQYRGAMYPWQSGRDGRETTQKLHLNPLNGHWGEDHSILQRHVSLAIAYNAWLYWHSTQDHEFMKQYGGEMLLEIAQFWNSAATLDDATGRFFIDKVMGPDEFHEGYPDQAESGLKNNAYTNLMVVWLFEELTNILALFSEEEQAQLFAKTQTTSADLARMQQIQNSLEIEVNSDGIIAQYEGYFGLKEIDWTAMKEKYGNIYRMDRILKAEGESPDDYKVAKQADTLMLFYNLDKTRVDQILEDLGYQLPADYLEKNLLYYLKRTSHGSTLSRIVHAQLAEMAQFHELSWQLYQEALYSDYRDIQGGTTAEGIHTGVMAATIHVTLATYAGVDTRQNELSICPNLPEHWQALAFQFIHQGVTYQFSLTQTSVTITADRDTQLLVQGALIPLTAERPKEVHYQEGHHHHHH,soluble
2,MIDTTVFQNKTAVYYTLGCKLNFSETSTIGKILREAGVRTARKGEKADICVVNTCSVTEMADKKCRQAIHRLVKQHPGAFVVVTGCYAQLKPGDVAKIKGVDVVLGAEQKGDLLQYLGDLHKHEEGEAFTTTTKDIRSFSPSCSRGDRTRFFLKVQDGCDYFCSYCTIPFARGRSRNGTVASMVEQARQAAAEGGKEIVLTGVNIGDFGKTTGETFFDLVKALDQVEGIERYRISSIEPNLLTDEIIEFVSRSRRFMPHFHIPLQSGCDEVLKLMRRRYDTALFASKVKKIKEVMPDAFIGVDVIVGTRGETEEYFEQAYQFISGLDVTQLHVFSYSERPGTQALKIDYVVSPEEKHQRSQRLLTLSDEKTRAFYTRHIGQTMQVLMEKSKAGTPMHGFTANYIRVEVENDESLDNQMINVRLGEFNEDMTALKGTILMNYEVLEHHHHHH,soluble
3,MRRCIELAKNGLCNVAPNPMVGAVIVCDGLIIGEGYHIRCGEAHAEVNAIRSVKDKSLLSRSTIYVSLEPCSHYGKTPPCADLIIEKQIPRIVIGCQDPFSQVAGRGIQKLRDAGREVTVGVLEKECRYLIRRFITFNTLHRPFITLKWAESADHFIDVERTDGNPVVLSSPLTSMLVHKKRAETDAIMVGRRTALLDNPSLTVRNWYGRNPVRIVLDRALSLPHSLRLFDGEVPTIVFTAEKHPDKKNVTYRTIEFTQDILPQIMKVLYQQKIQSLLVEGGSQLLQSFIDAELWDEVYIEKCPCKLNSGVKAPEISDNFSYSTEKHFDRQIWHYVFEK,not soluble
4,MLIAFEGIDGSGKTTQAKKLYEYLKQKGYFVSLYREPGGTKVGEVLREILLTEELDERTELLLFEASRSKLIEEKIIPDLKRDKVVILDRFVLSTIAYQGYGKGLDVEFIKNLNEFATRGVKPDITLLLDIPVDIALRRLKEKNRFENKEFLEKVRKGFLELAKEEENVVVIDASGEEEEVFKEILRALSGVLRV,soluble
5,MGNKQTIFTEEQLDNYQDCTFFNKKDILKLHSRFYELAPNLVPMDYRKSPIVHVPMSLIIQMPELRENPFKERIVAAFSEDGEGNLTFNDFVDMFSVLCESAPRELKANYAFKIYDFNTDNFICKEDLELTLARLTKSELDEEEVVLVCDKVIEEADLDGDGKLGFADFEDMIAKAPDFLSTFHIRI,not soluble
6,MYLAYYGFAEKPFQLKPDPNFFFPSRGHKRAAAYLEYGLSQEDGFIIITGDVGAGKTTLMRYLFQKLRQERVAAAQLVSTRLDPDDALRMVAAAFGLSYEGLSKAALLLELERFMRKCERESTRVLLVVDEAQNLLPQTLEELRMLSNFQSDNRPLLQTFLLGQPEFRRTLLGSQMQQLRQRVIATYHLGPLDQAETRAYIEHRLQKAGWNGSPVLQDEIFEVIHNFSAGIPRKINLFCDRLLIMGCLEELQTLGKAEANEVMLDIQKEFDLAVSPELEHHHHHH,soluble
7,MSTTVGRPSNEIASCQVCHSTERTRLYFGITSCAACAAFFRRSDGIRYMCTATNSCTISHDMKFFCRACRYTSCIRAGMVMSRNALATARKAPNNIIPREPTPRSVPSLEEVDGFSKILNISNGDLLKYYVKEVESIMAQQRYGEQKNALQVKSVNDLMIVTAYQEGTSLESCFNCPGVDILYNEDVEVVHKYFKFSNTWIDSLLAPTSPLDPSCNERISEFIHLLKSTLGSTLAQLNLNIIEYAAFKSFCIWKLVYHKTSISMKIVAQEHYEGVTSALRKYYRKNIKMSELEMATRIGDITLQIITVSNLYNDMARMYHQTGLQL,not soluble
8,MRNEEKHALRRELRRARAQMGHQGRLAAGQTINRLLKRYIKRGRKIGVYWPMGKELRLDGFVRAAQKRGAKLYLPYIEPRSRRMWFTPYPESGMERERIRGRAKLNVPQFAGRKIRVHGLSVLLVPLVGIDREGYRLGQAGGYYDATLAAMKYRLQAKTVGVGFACQFVDRLPREPHDLLLDGFVSEAGILCFLEHHHHHH,not soluble
9,MARGREAVTLLLVGWGYAPGMQTLEALDAVRRADVVYVESYTMPGSSWLYKSVVEAAGEARVVEASRRDLEERSREIVSRALDAVVAVVTAGDPMVATTHSSLAAEALEAGVAVRYIPGVSGVQAARGATMLSFYRFGGTVTLPGPWRGVTPISVARRIYLNLCAGLHTTALLDVDERGVQLSPGQGVSLLLEADREYAREAGAPALLARLPSVLVEAGAGGGHRVLYWSSLERLSTADVEGGVYSIVIPARLSGVEEWLLAAASGQRRPLEYDRSVYETVEENCKKGVYMEPV,soluble
10,MSLMTEMQQRAQLHRQIWKIADEVRGAVDGWDFKQYVLGTLFYRFISENFTDYMQAGDSSIDYAAMPDSIITPEIKDDAVKVKGYFIYPGQLFCNIAAEAHQNEELNTKLKEIFTAIESSASGYPSEQDIKGLFDDFDTTSSRLGSTVADKNKRLAAVLKGVAELDFGNFENHHIDLFGDAYEYLISNYAANAGKSGGEFFTPQSVSKLIARLAVHGQEKVNKIYDPACGSGSLLLQAKKQFDEHIIEEGFFGQEINHTTYNLARMNMFLHNVNYNQFHIELGDTLTNPKLKDSKPFDAIVSNPPYSINWIGSDDPTLINDDRFAPAGVLAPKSKADFAFILHALNYLSGRGRAAIVSFPGIFYRGGAEQKIRQYLVEGNYVETVIALAPNLFYGTGIAVNILVLSKHKDNTDIQFIDASGFFKKETNNNVLIEEHIAEIVKLFADKADVPHIAQNAAQQTVKDNGYNLAVSSYVEAEDTREIIDIKQLNAEIGETVAKIERLRREIDEVIAEIEAEGHHHHHH,soluble
11,MSLRPTIYDVAKAAGVSKSLVSLVLRGSPNVSKESEAAVKTAIKKLNYQPNRAASDLAAKRTQLIAVLIDDYSNPWFIDLIQSLSDVLTPKGYRLSVIDSLTSQAGTDPITSALSMRPDGIIIAQDIPDFTVPDSLPPFVIAGTRITQASTHDSVANDDFRGAEIATKHLIDLGHTHIAHLRVGSGAGLRRFESFEATMRAHGLEPLSNDYLGPAVEHAGYTETLALLKEHPEVTAIFSSNDITAIGALGAARELGLRVPEDLSIIGYDNTPLAQTRLINLTTIDDNSIGVGYNAALLLLSMLDPEAPHPEIMHTLQPSLIERGTCAPREGHHHHHH,soluble
12,MGSDKIHHHHHHYLFQTYGSNKGEIIECKNCYCFKDQWNNIKNNPSINKNAKVLSCWLYYDKASPKPALKIMLINKNKFHRFQYVDAICKNDEIVLEFNGTYKNLENEFSKGISTDEFMTSLDTVWKNAHNIFKTPSSKYSLFVTSKHSNSITKQSNAFYIGKNGALTKISEKDFPLNDVNYMNCSKLDEQDKSSENACIIFK,not soluble
13,MEPLKHECGIAMVRLRKPLSYYHDKYGTWMYGLNKLYLLMEKQHNRGQEGAGLAVVKLNSRPGEEYLFRERALGANAISEIFDSVHKDFQAYSREELGDAEFAASQIPYAGECYMGHLRYSTTGKSGLTFVHPMIRRSNWRAKCLSICGNFNLTNVDGIFDEITSVGQHPRNMSDTHILLEQIGHRLDREVERLFRIGKEQNLKGMDITHFIEERIDLSNVLKKCSPFWDGGYVMCGLTGSGESYAVRDPWGIRPAFYYIDDEIVVTASERPVIQTVMNLSAEAVRELMPGEAIFVNSKGEPRIERILETKNYQACSFERIYFSRGSDQDIYRERKALGYLLSERILRAIDYDISHTVFSFIPNTAEVAYYGMLEGIDHYLDECKIREIRENPNMSEAKLREILGRKVRSEKVAIKDIKLRTFITEGNSRNDLAAHVYDITYGTVQAGVDNLVVIDDSIVRGTTLRQSIIGIMDRLQPKKIVIVSSSPQIRYPDYYGIDMRKMREFVAFRSAVALLQERGMEQVLHDAYAKALELRKLSSGQEVENVVKTIYKPFTAEEISAKMVELLKPEGVRAKVEIVYQSLEGLHQAIPNHPGDWYFSGDYPTPGGAHLVNEAFISYMEEDYGK,not soluble
14,MGSDKIHHHHHHMPKLGFVQVEVSTRCQLSCLMCPKSCFSDEWIAKDMNMETFRLIPFKKFHYAHLQGWGEPLLNPNIGEMVDIAAKSCKVGLTTNGLLIDHHIDSILKLDLLAVSVASGDARQHERVRGCSLEKLAGNIKLVSESRGKRPKIVIATMMLKSTIESLPKLIDFAAECGADEVIANNLDYIPSKELVGEEVFGLTADKDVEKAVEQAGKRAEELGIGFIAKPRLMEEALVCAENPVENCVVAVDGRIAPCAYLNLPTASETIPRWFRGRTVEVPKVYFSSFKEWLKSDFRDTFKRRLQVLHQSLPTELPPLPQPCRTCYKAYSV,not soluble
15,MSDSNTPNPPGTEERLVQQLDSYFSNTATGNETGEASAPAAPNNAAGTSDQDRPPNLAPILMLSYLNHCMSKKSFTPEDIQKSVWEQKSKKLSQEDWEFCKYFISSKELLLQLAPGKKRKTQAQALIELILKKFPGVGVEMLTRLLDPSESAYIIYDVIEQVKCEPKCDAESIKQEEFMYSQKINKKIRENNKCFKFSMVFERLRNGSSLPEEKPFAPLEFRTITSEYSNIYTQMVKATTYVELMDVMSKLKTTRLSVNELYFSAKHMQNPEKDTQDEFWEAESEKVLELQPLMIDPQLESTSRQRLKILQELALQQKMLKEVDEIISMSFELVTKSLSTGNPHNPADVQSLMINSNAPSIPDQRKNDWMEYYNLNPLGQYPISSHFPRSDRIGPKLPAVIQKISIRYCLSKEIEVIETIDEWKCREFCTYDHNLKDFRRHKCEICEVEVQECDLSLRQTKWCSHIEDQVLLMYNRVNGRLEQYVFSFETKGFKEVYCSCIEVTYRGKNGPEEPVLLTNGSEHVVIKEADPGVVKLQLVGENHVEIPAVPVQQLSAEEIEMQDAYDSSKSESESEHESEQISYNKTFISTLPMFKVRHCPLSRKDVLYVRSNNLGQYEKYDYHPTYHRFEPFKCSKCKDATSEDHLVPKYAEHCPETNEFVIHTENLFTERMEQYIYDSMTQGFRQVYYPQFLYDPSKDHTSNVFVTVNYLSTVITRDKDGRFKKEKFCDNLKKFVAIPEVEVNTFTVQELEKKKNKRRVDSDSDSFEHIEIPDMVSASP,not soluble
16,MGSDKIHHHHHHMNSLLASIDSSRAMPVLEDITQHEISALKTRFNLADAHTHQDQSDTQRMIVASLPELWYQAQNQTQYQSEQAFIRAFFTFHGQHHALKRHDEIYLVYAASIAMHITATYLRKNTLSVGLIEPCFDNLHDLLKHMEVPMSPLDESLFSSSSEVYANLQKAAIGLDAIFLVDPNNPTGSSLFADGPDTFVEVARYCRDYNKLLILDFCFASFFMAAGRERVDAYAILDDIGTRYLIMEDTGKTWPLQDTKCATLMASKDINAEIYSIVTSVLLNVSPFILNVVTRYIEDSNDDDFNSVRSVLEVNRRRARDCLEGKVLKYMQPMIDTSVAWFEILPAGIDADELQTYLLQWDVYVLPGKYFYWSQPEKGQRYIRLALARKPEEFDAAVQMIAHALEHFHV,not soluble
